Data published in US20140105889A1 (published 2014).
Residue numbers refer to the chain shown, from its start. Numbers in names are those of the source. Read-outs that look alike come from different tables or passages of the source. One block for each binder: values may come before it.

What was measured:
mouse FcγRIV [1] = biological target: T1, mouse FcγRIV (mouse); assay: SPR (Biacore), antibody captured on Protein L, mouse FcγR as analyte, pH 7.4, 25 C
T1 construct: Bought soluble receptor; also called mFcgRIV; mFcgR IV
T1 sequence (A0A0B4J1G0 21-203): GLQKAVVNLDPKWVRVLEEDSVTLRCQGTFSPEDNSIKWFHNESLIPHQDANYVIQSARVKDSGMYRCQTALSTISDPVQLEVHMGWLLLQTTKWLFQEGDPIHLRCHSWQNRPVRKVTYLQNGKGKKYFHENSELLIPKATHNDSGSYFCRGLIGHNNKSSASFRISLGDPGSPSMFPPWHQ
Experimental: (§1) Binding activity between the antibodies and mouse FcγRI, FcγRII, FcγRIII and FcγRIV (R&D Systems, Sin θ Biological) (hereinafter referred to as mouse FcγRs) was evaluated using the Biacore T100 or T200 (GE Healthcare). The antibodies being tested were captured by Protein L (ACTIGEN) that was immobilized in suitable amounts on the CM4 Sensor Chip (GE Healthcare) by amine coupling. Next, the diluted mouse FcγRs and a running buffer used as a blank were injected to allow interaction with the antibody captured on the sensor chip. A buffer consisting of 20 mmol/L ACES, 150 mmol/L NaCl and 0.05% (w/v) Tween 20 (pH 7.4) was used for the running buffer, and this buffer was also used to dilute the mouse FcγRs. 10 mmol/L glycine-HCl (pH 1.5) was used to regenerate the sensor chip. All measurements were carried out at 25° C.

human FcγRIIIa(F) = biological target: T2, human FcγRIIIa(F) (human, UniProt P08637 17-208, limits assumed); assay: SPR (Biacore), antibody captured by Protein L, FcγR as analyte, pH 7.4, 25°C; amount normalised to captured antibody
T2 construct: also called FcgRIIIaF; hFcgRIIIa(F)
T2 sequence (P08637 other isoform, or with tags, fused parts or gaps limits assumed): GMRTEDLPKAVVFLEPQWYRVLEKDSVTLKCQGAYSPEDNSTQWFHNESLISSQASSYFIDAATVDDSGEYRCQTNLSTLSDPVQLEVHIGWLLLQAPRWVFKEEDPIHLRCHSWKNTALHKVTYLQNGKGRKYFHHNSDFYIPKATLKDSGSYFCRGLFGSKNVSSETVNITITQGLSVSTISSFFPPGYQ
Experimental: Binding activity between the antibodies and human FcγRIa, FcγRIIa(H), FcγRIIa(R), FcγRIIb and FcγRIIIa(F) (hereinafter referred to as human FcγRs) was evaluated using the Biacore T100 or T200 (GE Healthcare). The antibodies being tested were captured by Protein L (ACTIGEN) that was immobilized in suitable amounts on the CM4 Sensor Chip (GE Healthcare) by amine coupling. Next, the diluted human FcγRs and a running buffer used as a blank were injected to allow interaction with the antibodies captured on the sensor chip. A buffer consisting of 20 mmol/L ACES, 150 mmol/L NaCl and 0.05% (w/v) Tween 20 (pH 7.4) was used for the running buffer, and this buffer was also used to dilute the human FcγRs. 10 mmol/L glycine-HCl (pH 1.5) was used to regenerate the sensor chip. All measurements were carried out at 25° C.

mouse FcγRIV [2] = biological target: T1, mouse FcγRIV; assay: SPR (Biacore), antibody captured on Protein L, mouse FcγR as analyte, pH 7.4, 25 C; remark: listed apart in the source
Experimental: as §1

human FcRn = biological target: T3, human FcRn (human); assay: SPR (Biacore), pH 7.0, 25 C, antibody captured by Protein L, human FcRn as analyte
T3 construct: also called hFcRn; soluble human FcRn complexed with β2-microglobulin
Experimental: A kinetic analysis of binding between human FcRn and the aforementioned antibodies was carried out using the Biacore T100 or T200 (GE Healthcare). The antibodies being tested were captured on the CM4 Sensor Chip (GE Healthcare) on which a suitable amount of Protein L (ACTIGEN) was suitably immobilized by amine coupling. Next, diluted human FcRn and a running buffer used as a blank were injected to allow the human FcRn to interact with the antibody captured on the sensor chip. A buffer consisting of 50 mmol/L sodium phosphate, 150 mmol/L NaCl and 0.05% (w/v) Tween 20 (pH 7.0 or pH 7.4) was used for the running buffer, and each buffer was also used to dilute the human FcRn. 10 mmol/L glycine-HCl (pH 1.5) was used to regenerate the sensor chip. All measurements of binding were carried out at 25° C. The KD(M) of each antibody to human FcRn was calculated based on kinetics parameters, i.e., the association rate constant ka (1/Ms) and the dissociation rate constant kd (1/s) calculated from a sensorgram obtained by the measurement. The Biacore T100 or T200 Evaluation Software (GE Healthcare) was used to calculate each parameter.

human FcγRIIb [3] = biological target: T4, human FcγRIIb (human, UniProt P31994 43-217, limits assumed); assay: SPR KD for FcγRIIb of parent IL6R-B3/IL6R-L divided by that of this variant
T4 construct: also called FcγIIB; hFcgRIIb
T4 sequence: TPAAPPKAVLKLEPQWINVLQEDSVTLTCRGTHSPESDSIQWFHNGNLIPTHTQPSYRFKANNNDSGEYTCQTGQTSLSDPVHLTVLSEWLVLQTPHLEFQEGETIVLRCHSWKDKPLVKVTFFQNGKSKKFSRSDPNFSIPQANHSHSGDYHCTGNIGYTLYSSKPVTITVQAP
Text: (§2) Furthermore, KD(IIaR)/KD(IIb) and KD(IIaH)/KD(IIb) in the table respectively represent the value obtained by dividing the KD value of each variant for FcγRIIaR by the KD value of each variant for FcγRIIb, and the value obtained by dividing the KD value of each variant for FcγRIIaH by the KD value of each variant for FcγRIIb.

[4] = biological target: T5, human FcγRIIa type H (allotype H131) (human, UniProt P12318 36-217); assay: SPR (Biacore), antibody captured on the chip, FcγR as analyte
T5 construct: also called FcγRIIaH; FcγRIIa(H)
T5 sequence: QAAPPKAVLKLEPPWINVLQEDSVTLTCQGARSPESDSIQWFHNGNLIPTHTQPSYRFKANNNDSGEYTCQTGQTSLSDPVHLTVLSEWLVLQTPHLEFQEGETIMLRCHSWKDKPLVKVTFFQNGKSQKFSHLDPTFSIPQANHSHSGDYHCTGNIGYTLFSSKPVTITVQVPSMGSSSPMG

[5] = biological target: T6, human FcγRIIIa type V (allotype V158) (human, UniProt P08637 17-208, limits assumed); assay: as above
T6 construct: the assay used allotype V158; also called FcγRIIIaV; FcγRIIIa(V)
T6 sequence (P08637 other isoform, or with tags, fused parts or gaps limits assumed): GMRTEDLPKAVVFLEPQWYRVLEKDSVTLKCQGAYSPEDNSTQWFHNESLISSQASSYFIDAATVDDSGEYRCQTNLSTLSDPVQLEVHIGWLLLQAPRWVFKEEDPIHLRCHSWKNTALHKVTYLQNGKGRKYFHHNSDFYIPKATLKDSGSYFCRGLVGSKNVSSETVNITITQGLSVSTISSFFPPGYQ

human FcγRIIb [6] = biological target: T7, human FcγRIIb (human, UniProt P31994 43-217); assay: SPR (Biacore); KD of parent IL6R-B3/IL6R-L for FcγRIIb divided by KD of the variant for FcγRIIb
T7 construct: also called FcγIIB
T7 sequence: T4 sequence
Text: as §2

B5: antibody containing VH3-IgG2-F890 and L(WT)-CK (antibody)
heavy: QVQLQESGPGLVKPSETLSLTCAVSGHSISHDHAWSWVRQPPGEGLEWIGFISYSGITNYNPSLQGRVTISRDNSKNTLYLQMNSLRAEDTAVYYCARSLARTTAMDYWGEGTLVTVSSASTKGPSVFPLAPCSRSTSESTAALGCLVKDYFPEPVTVSWNSGALTSGVHTFPAVLQSSGLYSLSSVVTVPSSNFGTQTYTCNVDHKPSNTKVDKTVERKCCVECPPCPAPPVAGPSVFLFPPKPKDTLYISRTPEVTCVVVDVSHEDPEVQFNWYVDGVEVHNAKTKPREEQFNSTFRVVSVLTVVHQDWLNGKEYKCKVSNKGLPAPIEKTISKTKGQPREPQVYTLPPSREEMTKNQVSLTCLVKGFYPSDIAVEWESNGQPENNYKTTPPMLDSDGSFFLYSKLTVDKSRWQQGNVFSCSVMHEALHYHVTQKSLSLSP
light: not shown
notes: VH3-IgG2 with M252Y/N434Y/Y436V (EU numbering)
BINDING AMOUNT (RU) (human FcγRIIIa(F)): 9.3 RU

B9: F1254 (antibody, name in EU numbering)
heavy: QVQLQESGPGLVKPSETLSLTCAVSGHSISHDHAWSWVRQPPGEGLEWIGFISYSGITNYNPSLQGRVTISRDNSKNTLYLQMNSLRAEDTAVYYCARSLARTTAMDYWGEGTLVTVSSASTKGPSVFPLAPSSKSTSGGTAALGCLVKDYFPEPVTVSWNSGALTSGVHTFPAVLQSSGLYSLSSVVTVPSSSLGTQTYICNVNHKPSNTKVDKKVEPKSCDKTHTCPPCPAPELRGGPKVFLFPPKPKDTLYISRTPEVTCVVVDVSHEDPEVKFNWYVDGVEVHNAKTKPREEQYNSTYRVVSVLQVLHQDWLNGKEYKCKVSNKALPAPIEKTISKAKGQPREPQVYTLPPSRDELTKNQVSLTCLVKGFYPSDIAVEWESNGQPENNYKTTPPVLDSDGSFFLYSKLTVDKSRWQQGNVFSCSVMHEALHYHVTRKELSLSP
light: not shown
notes: copies: 2 + 2
Kd (human FcRn): 0.0642 µM

B10: IL6R-BP133/IL6R-L (antibody, human IgG1)
heavy: QVQLQESGPGLVKPSETLSLTCAVSGHSISHDHAWSWVRQPPGEGLEWIGFISYSGITNYNPSLQGRVTISRDNSKNTLYLQMNSLRAEDTAVYYCARSLARTTAMDYWGEGTLVTVSSASTKGPSVFPLAPSSKSTSGGTAALGCLVKDYFPEPVTVSWNSGALTSGVHTFPAVLQSSGLYSLSSVVTVPSSSLGTQTYICNVNHKPSNTKVDKKVEPKSCDKTHTCPPCPAPDYLGGDSVFLFPPKPKDTLMISRTPEVTCVVVDVSHEDPEVKFNWYVDGVEVHNAKTKPREEQYNSTYRVVSVLTVLHQDWLNGKEYKCKVSNKALPKPIEKTISKAKGQPREPQVYTLPPSRDELTKNQVSLTCLVKGFYPSDIAVEWESNGQPENNYKTTPPVLDSDGSFFLYSKLTVDKSRWQQGNVFSCSVMHEALHNHYTQESLSLSP
light: DIQMTQSPSSLSASVGDRVTITCRASQDISSYLNWYQQKPGKAPKLLIYYTSRLHSGVPSRFSGSGSGTDFTFTISSLQPEDIATYYCQQGNTLPYTFGQGTKVEIK
notes: copies: 2 + 2
KD(IIb) of the parent polypeptide/KD(IIb) of the altered polypeptide (human FcγRIIb [3]): 5.5

B12: F1269 (antibody, name in EU numbering)
heavy: B9 heavy with Q309T, H435D, R440K, E442D
light: not shown
notes: copies: 2 + 2
Kd (human FcRn): 0.169 µM

B15: F1213 (antibody, human IgG1, kappa, name in EU numbering)
heavy: B9 heavy with R237L, K241S, L253N, Q309T, R440Q, E442S
light: not shown
notes: copies: 2 + 2
Kd (human FcRn): 0.633 µM

B16: F1270 (antibody, name in EU numbering)
heavy: B9 heavy with S256A, Q309T, R440K, E442D
light: not shown
notes: copies: 2 + 2
Kd (human FcRn): 0.118 µM

B17: IL6R-BP194/IL6R-L (antibody, human IgG1)
heavy: B10 heavy with G239D, H270D, P273G, K328A
light: B10 light
notes: Anti-human IL-6 receptor human IgG1 variant; copies: 2 + 2
Kd [4]: 6.5 µM
Kd [5]: 27 µM
KD(IIb) of the parent polypeptide/KD(IIb) of the altered polypeptide (human FcγRIIb [6]): 59.4

B18: IL6R-BP184/IL6R-L (antibody, human IgG1)
heavy: B10 heavy with Y236L, P273G
light: B10 light
notes: as for B17
Kd [4]: 3 µM
Kd [5]: 66 µM
KD(IIb) of the parent polypeptide/KD(IIb) of the altered polypeptide (human FcγRIIb [6]): 24.5

B19: IL6R-BP189/IL6R-L (antibody, human IgG1)
heavy: B10 heavy with D235E, Y236L, G239D, H270D, P273G, K328A
light: B10 light
notes: as for B17
Kd [4]: 2.1 µM
Kd [5]: 49 µM
KD(IIb) of the parent polypeptide/KD(IIb) of the altered polypeptide (human FcγRIIb [6]): 41.8

B20: IL6R-BP202/IL6R-L (antibody, human IgG1)
heavy: B10 heavy with D235E, Y236L, G239D, P273G, K328A, K332R
light: B10 light
notes: as for B17
Kd [4]: 9.2 µM
KD(IIb) of the parent polypeptide/KD(IIb) of the altered polypeptide (human FcγRIIb [6]): 48.4

B21: antibody containing VH3-IgG4-F890 and L(WT)-CK (antibody)
heavy: QVQLQESGPGLVKPSETLSLTCAVSGHSISHDHAWSWVRQPPGEGLEWIGFISYSGITNYNPSLQGRVTISRDNSKNTLYLQMNSLRAEDTAVYYCARSLARTTAMDYWGEGTLVTVSSASTKGPSVFPLAPCSRSTSESTAALGCLVKDYFPEPVTVSWNSGALTSGVHTFPAVLQSSGLYSLSSVVTVPSSSLGTKTYTCNVDHKPSNTKVDKRVESKYGPPCPPCPAPEFLGGPSVFLFPPKPKDTLYISRTPEVTCVVVDVSQEDPEVQFNWYVDGVEVHNAKTKPREEQFNSTYRVVSVLTVLHQDWLNGKEYKCKVSNKGLPSSIEKTISKAKGQPREPQVYTLPPSQEEMTKNQVSLTCLVKGFYPSDIAVEWESNGQPENNYKTTPPVLDSDGSFFLYSRLTVDKSRWQEGNVFSCSVMHEALHYHVTQKSLSLSL
light: not shown
notes: VH3-IgG4 with M252Y/N434Y/Y436V (EU numbering)
BINDING AMOUNT (RU) (human FcγRIIIa(F)): 3.4 RU

More lines, now with the values ahead:

BINDING AMOUNT (RU) (mouse FcγRIV [1]): -8 RU
B1: antibody with mPM1H-mIgG1-mF14 heavy chain (antibody)
heavy: DVQLQESGPVLVKPSQSLSLTCTVTGYSITSDHAWSWIRQFPGNKLEWMGYISYSGITTYNPSLKSRISITRDTSKNQFFLQLNSVTTGDTSTYYCARSLARTTAMDYWGQGTSVTVSSAKTTPPSVYPLAPGSAAQTNSMVTLGCLVKGYFPEPVTVTWNSGSLSSGVHTFPAVLQSDLYTLSSSVTVPSSTWPSETVTCNVAHPASSTKVDKKIVPRDCGCKPCICTVPEVSSVFIFPPKPKDVLYITLEPKVTCVVVDISKDDPEVQFSWFVDDVEVHTAQTQPREEQFNSTFRSVSELPIMHQDWLNGKEFKCRVNSAAFPAPIEKTISKTKGRPKAPQVYTIPPPKEQMAKDKVSLTCMITDFFPEDITVEWQWNGQPAENYKNTQPIMDTDGSYFVYSKLNVQKSNWEAGNTFTCSVLHEGLKNHHTEKSLSHSPGK
light: not shown
notes: also called mPM1-mIgG1-mF14; copies: 2 + 2

BINDING AMOUNT (RU) (mouse FcγRIV [1]): -4.1 RU
B2: antibody with mPM1H-mIgG1-mF38 heavy chain (antibody)
heavy: B1 heavy with K429H, N430W
light: not shown
notes: also called mPM1-mIgG1-mF38; copies: 2 + 2

BINDING AMOUNT (RU) (mouse FcγRIV [1]): -8.9 RU
B3: antibody with mPM1H-mIgG1-mF40 heavy chain (antibody)
heavy: B1 heavy with P231K, S235K, K429H, N430W
light: not shown
notes: also called mPM1-mIgG1-mF40; copies: 2 + 2

BINDING AMOUNT (RU) (mouse FcγRIV [1]): -3.8 RU
B4: antibody with mPM1H-mIgG1-mF39 heavy chain (antibody)
heavy: B1 heavy with P231K, S235K
light: not shown
notes: also called mPM1-mIgG1-mF39; copies: 2 + 2

BINDING AMOUNT (RU) (human FcγRIIIa(F)): 0.6 RU
B6: antibody containing VH3-IgG2-F939 and L(WT)-CK (antibody)
heavy: B5 heavy with A234R, S237K
light: not shown
notes: VH3-IgG2 with A235R/S239K/M252Y/N434Y/Y436V (EU numbering)

BINDING AMOUNT (RU) (human FcγRIIIa(F)): 16.3 RU
B7: antibody containing VH3-IgG2 and L(WT)-CK (antibody)
heavy: B5 heavy with Y250M, Y432N, V434Y
light: not shown

BINDING AMOUNT (RU) (mouse FcγRIV [2]): -3.8 RU
B8: antibody with VH3-IgG1-F821 heavy chain and L(WT)-CK light chain (antibody)
heavy: B9 heavy with Q309T, V438Y, R440Q, E442S
light: not shown
notes: copies: 2 + 2

BINDING AMOUNT (RU) (mouse FcγRIV [2]): 230 RU
B11: antibody with VH3-IgG1-F890 heavy chain and L(WT)-CK light chain (antibody)
heavy: B9 heavy with R237L, K241S, Q309T, R440Q, E442S
light: not shown
notes: copies: 2 + 2

BINDING AMOUNT (RU) (mouse FcγRIV [2]): -7.3 RU
B13: antibody with VH3-IgG1-F939 heavy chain and L(WT)-CK light chain (antibody)
heavy: B9 heavy with Q309T, R440Q, E442S
light: not shown
notes: copies: 2 + 2

BINDING AMOUNT (RU) (mouse FcγRIV [2]): 7.2 RU
B14: antibody with VH3-IgG1-F1009 heavy chain and L(WT)-CK light chain (antibody)
heavy: B9 heavy with T252V, V310P, Q313A, R440Q, E442S
light: not shown
notes: copies: 2 + 2

BINDING AMOUNT (RU) (human FcγRIIIa(F)): -1.7 RU
B22: antibody containing VH3-IgG4-F939 and L(WT)-CK (antibody)
heavy: B21 heavy with L234R, S238K
light: not shown
notes: VH3-IgG4 with L235R/S239K/M252Y/N434Y/Y436V (EU numbering)
